Laboratory results from patent publication US20220025056A1 (INNATE PHARMA, published 2022).
Numbering of substitutions follows the chain as printed. One block for each binder: values may come before it.

Key:
[1] = target: T1, human ILT6 (LILRA3) on CHO cells (human, UniProt Q8N6C8 24-434); assay: flow cytometry, CHO transfectants
T1 construct: also called CHO ILT6 cell line; human ILT-6 polypeptide

ILT2 mutant 2 = target: T2, ILT2 mutant 2 (human, UniProt Q8NHL6 24-650); assay: flow cytometry, ILT2 point mutants
T2 construct: transfected in HEK293T cells; also called M2

[2] = target: T3, anchored ILT2 D4 domain protein (human, UniProt Q8NHL6 322-650); assay: flow cytometry, CHO cells with anchored ILT2 domain proteins
T3 construct: on CHO cells; the entry includes leader remnant, V5 tag, and the ILT2 transmembrane and cytoplasmic parts

[3] = target: T4, anchored ILT2 D2 domain protein (human); assay: as above
T4 construct: on CHO cells; the entry includes leader remnant, V5 tag and CD24 GPI anchor signal
T4 sequence (chain, as listed by the source limits assumed): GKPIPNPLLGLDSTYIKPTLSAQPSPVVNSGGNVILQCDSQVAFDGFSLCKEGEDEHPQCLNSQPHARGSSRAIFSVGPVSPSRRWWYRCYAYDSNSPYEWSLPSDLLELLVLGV

T2 sequence (Q8NHL6 other isoform, or with tags, fused parts or gaps mutant): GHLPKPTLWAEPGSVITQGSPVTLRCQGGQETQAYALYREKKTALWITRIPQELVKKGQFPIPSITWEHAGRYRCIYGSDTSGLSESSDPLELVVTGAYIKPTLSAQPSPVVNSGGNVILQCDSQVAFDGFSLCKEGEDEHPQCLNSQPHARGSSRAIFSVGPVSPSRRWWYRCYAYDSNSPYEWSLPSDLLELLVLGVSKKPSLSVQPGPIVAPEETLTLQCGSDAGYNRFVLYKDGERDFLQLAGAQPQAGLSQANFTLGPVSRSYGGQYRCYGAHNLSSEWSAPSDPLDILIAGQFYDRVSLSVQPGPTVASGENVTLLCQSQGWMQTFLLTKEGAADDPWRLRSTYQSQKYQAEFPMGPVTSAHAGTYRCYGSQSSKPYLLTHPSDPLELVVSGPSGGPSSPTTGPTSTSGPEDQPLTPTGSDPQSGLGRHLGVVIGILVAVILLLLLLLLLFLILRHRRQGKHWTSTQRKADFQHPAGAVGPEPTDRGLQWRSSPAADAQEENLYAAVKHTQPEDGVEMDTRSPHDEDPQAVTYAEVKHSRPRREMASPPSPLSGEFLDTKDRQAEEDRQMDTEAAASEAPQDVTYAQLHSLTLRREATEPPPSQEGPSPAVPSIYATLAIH
T1 sequence (Q8N6C8 other isoform, or with tags, fused parts or gaps): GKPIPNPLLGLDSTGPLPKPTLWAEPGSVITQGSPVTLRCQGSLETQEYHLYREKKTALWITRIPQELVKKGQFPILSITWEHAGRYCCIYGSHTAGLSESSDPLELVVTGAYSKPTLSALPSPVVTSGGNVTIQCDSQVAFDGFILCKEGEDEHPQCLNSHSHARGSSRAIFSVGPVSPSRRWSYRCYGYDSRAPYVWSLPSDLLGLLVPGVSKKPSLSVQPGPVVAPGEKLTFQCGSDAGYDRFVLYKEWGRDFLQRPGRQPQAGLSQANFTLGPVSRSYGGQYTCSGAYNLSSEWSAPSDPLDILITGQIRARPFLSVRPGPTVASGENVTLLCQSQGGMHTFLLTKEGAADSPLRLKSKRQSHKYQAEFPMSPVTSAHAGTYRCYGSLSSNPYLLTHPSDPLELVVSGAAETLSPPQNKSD
T3 sequence (Q8NHL6 other isoform, or with tags, fused parts or gaps limits assumed): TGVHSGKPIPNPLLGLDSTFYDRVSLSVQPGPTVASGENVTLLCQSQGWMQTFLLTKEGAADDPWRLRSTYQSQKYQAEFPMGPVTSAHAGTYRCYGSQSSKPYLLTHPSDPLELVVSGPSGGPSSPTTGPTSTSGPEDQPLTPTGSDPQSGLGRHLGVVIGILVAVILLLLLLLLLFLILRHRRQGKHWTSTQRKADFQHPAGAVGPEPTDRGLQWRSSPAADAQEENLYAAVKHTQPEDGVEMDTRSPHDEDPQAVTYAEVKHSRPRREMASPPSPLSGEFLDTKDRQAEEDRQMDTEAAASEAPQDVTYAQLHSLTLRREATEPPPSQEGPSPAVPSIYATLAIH

binding result [1]: no binding
binding result (ILT2 mutant 2): no binding
B1: 2A8A (antibody, human IgG1, V domains shown)
VH: QVQLQQSGPELVKPGASVKISCKASGYSFTNFYIHWVRQRPGQGLDWIGWIFPGSGETKFNEKFKVKATLTADTSSSTAYMQLNSLTSEDSAVYFCARSWNYDARWGYWGQGTSVTVSS
VL: QIVLTQSPASLAVSLGQRATISCRASESIDSYGISFLHWYQQKPGQPPKLLIYRASNLESGIPARFSGSGSRPDFTLTINPVEADDVATYYCQQSNEDPFTFGSGTKLEIK

binding result [1]: no binding
binding result (ILT2 mutant 2): no binding
B2: 2D8 (antibody, human IgG1, V domains shown)
VH: B1 VH with Q1E, A24S, R38K, K59N, T69A, S77N, N84S, S114T
VL: B1 VL with Q1D, I2A, L4M, S7T, I29V, L37M, N57I, T76S

binding result [1]: no binding
binding result (ILT2 mutant 2): no binding
B3: 4E3B (antibody, human IgG1, V domains shown)
VH: EVHLQQSGPELVKPGASVKISCKASGYSFTNYYIQWVKQRPGQGLEWIGWIFPGSGETNYNENFRAKATLSADTSSTTAYMQLSSLTSEDSAVYFCARTWNYDARWGYWGQGTTVTVSS
VL: B1 VL with Q1D, V3L, A25P, S28N, L37M, Y40C, A64V, P73T

binding result [1]: no binding
binding result (ILT2 mutant 2): no binding
B4: 2E11 (antibody, human IgG1, V domains shown)
VH: QVQLKESGPELVKPGASVKISCKTSGYSFTNYYIHWVKQRPGQGLEWIGWIFPGSGDTNYNEKFKGKATLTADTSSNTASMHLSSLTSEDSAVYFCARTWNYDARWGYWGQGTTLTVSS
VL: B1 VL with Q1D, L4M, A25V, L37M, P44S, L50V, N57T, P73T

binding result [1]: no binding
binding result (ILT2 mutant 2): no binding
B5: 3E5 (antibody, human IgG1, V domains shown)
VH: DVQLQESGPELVKPGASVKISCKSSGYSFTNFYIHWVKQRPGQGLDWIGWIFPGTGETNFNEKFKVKAALTADTSSSTVYMQLSTLTSEDSAVYFCARSWNYDARWGYWGQGTSITVSS
VL: B1 VL with Q1E, I2N, Y32F, L37M, R72G, T76S, N80D, D98A

binding result [1]: no binding
binding result (ILT2 mutant 2): no binding
B6: 4C11B (antibody, human IgG1, V domains shown)
VH: B4 VH with T24A, D57E, N61S, K67E, T69I, S80Y, H82Q, T99S
VL: B1 VL with T5S, A9V, L15P, L37M, Q41K, P73T

binding result [1]: no binding
binding result (ILT2 mutant 2): no binding
B7: 6C6 (antibody, human IgG1, V domains shown)
VH: B1 VH with Q1E, R38K, K59N, F60Y, K63R, V66G, A72S, N84S, S114T, V115L
VL: B1 VL with S7T, L37M

binding result [1]: no binding
binding result (ILT2 mutant 2): no binding
B8: 4H3 (antibody, human IgG1, V domains shown)
VH: B4 VH with S28I, N77S, H82Q, L115V
VL: B1 VL with Q1D, V3L, A25V, L37M, P44S, L50V, N57T, P73T

binding result [2]: no binding
binding result [3]: no binding
B9: 3A7A (antibody, human IgG1, V domains shown)
VH: QVQLKESGPELVKPGTSVKISCKASGYNFRNYYIQWVKQRPGQGLEWIGWIFPGNNETNYNEKFKGKATLSADTSSTTAYMQLSSLTSEDSAVYFCARSWNYDARWGYWGQGTTVTVSS
VL: DVVMTQTPASLAVSLGQRATISCRASEIIDNYGISFIHWYQQKPGQPPKLLIYRASNLESGIPARFSGSGSRTDSTLTINPVGADDVATYYCQQSNEDPFTFGSGTKLELK

binding result [1]: no binding
binding result (ILT2 mutant 2): no binding
B10: 2E2C (antibody, human IgG1, V domains shown)
VH: B3 VH with V2F, H3Q, I34M, T58S, N63K, R65K, A66G, V115L
VL: B1 VL with Q1D, L4M, R24I, A25P, L37M, P73T

binding result [1]: no binding
binding result (ILT2 mutant 2): no binding
B11: 1A10D (antibody, human IgG1, V domains shown)
VH: B4 VH with E6Q, T24A, D57E, Y60F, N77S, S80Y, H82Q, L83F, L115V
VL: B1 VL with Q1E, L37M, P73T

binding result [1]: no binding
binding result (ILT2 mutant 2): no binding
B12: 2E2B (antibody, human IgG1, V domains shown)
VH: B3 VH with E1D, H3Q, Q5V, Q6E, I34M, S55G, T58S, N63K, R65K, A66G
VL: B1 VL with Q1D, R24I, A25P, L37M, P73T

binding result [1]: no binding
binding result (ILT2 mutant 2): no binding
B13: 3E7A (antibody, human IgG1, V domains shown)
VH: B4 VH with E6Q, T24A, D57E, Y60F, N77S, S80Y, H82Q, L83F, L115V
VL: B1 VL with Q1D, V3L, L4M, S28G, L37M, K49T, P73T, S95T

binding result [1]: no binding
binding result (ILT2 mutant 2): no binding
B14: 5D9 (antibody, human IgG1, V domains shown)
VH: B4 VH with T24A, P53L, D57E, K67E, T69I, N77T, S80Y, H82Q, T99S
VL: B1 VL with Q1E, L37I, P73T, D85E

binding result [1]: no binding
binding result (ILT2 mutant 2): no binding
B15: 3E7B (antibody, human IgG1, V domains shown)
VH: B4 VH with E6Q, T24A, D57E, Y60F, N77S, S80Y, H82Q, L83F, L115V
VL: B1 VL with Q1E, V3Q, L4M, S28G, L37M, K49T, E59V, P73T, S95T

binding result [1]: no binding
binding result (ILT2 mutant 2): no binding
B16: 2C8 (antibody, human IgG1, V domains shown)
VH: B3 VH with H3Q, Q5K, S55N, N63K, R65K, A66G, S71T, T77S, T114S
VL: B1 VL with Q1D, V3L, A12T, S26N, L37M, E59D, P73T

binding result [1]: no binding
binding result (ILT2 mutant 2): no binding
B17: 3E9B (antibody, human IgG1, V domains shown)
VH: B3 VH with H3Q, Q6E, A24T, Q35H, N63K, R65K, A66G
VL: B1 VL with Q1E, V3L, S28T, L37M, P73T

binding result [2]: no binding
binding result [3]: no binding
B18: 1A9 (antibody, human IgG1, V domains shown)
VH: EVKLQQSGPDLVKPGASVKISCKASGYSFTNFYIHWVKQRPGQGLEWIGWIFPGNGETNYSEKFKGKATLTADTSSSTAYMQFNSLTYEDSAVYFCARTWNYDARWGYWGQGTTLTVSS
VL: DVVMTQTPASLAVSLGQRATISCRASDGIDSYGISFMRWYQQKPGQPPTLLIYRASTLESGIPARFSGSGSRTNFTLTINPVEADDVATYYCQQTNEDPFTFGSGTKLEIK

binding result [2]: no binding
binding result [3]: no binding
B19: 1E4C (antibody, human IgG1, V domains shown)
VH: QRELQQSGPELVKPGASVNISCKASGYSFTNHYINWVKQRPGQGLEWIGWIFPGNGDTNYNEKFKGKATLTADTSSSTAYMQLSSLTSEDSAVYFCARTWNYDARWGYWGQGTTVTVSS
VL: B9 VL with S10F, I28S, N31S, I37M, L50V, A55T, S75F, G83E, L110I

binding result [1]: no binding
binding result (ILT2 mutant 2): no binding
B20: 2A9 (antibody, human IgG1, V domains shown)
VH: B3 VH with H3K, Q35H, N63K, R65K, A66V, V115L
VL: B1 VL with Q1D, I2V, L4V, S7T, L37M, P73T

binding result [1]: no binding
binding result (ILT2 mutant 2): no binding
B21: 2H12 (antibody, human IgG1, V domains shown)
VH: B18 VH
VL: B18 VL with V2I, V3L, M4L, T7S, R38H, N74D, D98A, I110L
